# In patent US8080531B2, “Methods for modulating checkpoint activation through TopBP1” (California Institute of Technology, priority 2006, dated 2011):
# Key:
# [1] = system: Xatr-Xatrip; experiment: Kinase assay of Xatr-Xatrip complexes isolated from Xenopus egg extracts; type: biochemical; conditions: for activation of Xatr kinase activity toward PHAS-I: isolated Xatr-Xatrip complexes, 32P-ATP, result in words
# Excerpt: Specifically, Applicants first isolated Xatr from egg extracts by pull-downs with FLAG-tagged Xenopus ATRIP (Xatrip). For these experiments, Applicants used both full-length Xatrip and an N-terminal truncation mutant (ΔN222) that supports normal Xatr-dependent activation of Xchk1 in egg extracts (Kumagai et al., 2004; Kim et al., 2005).
# Applicants eluted the beads with FLAG peptide and mixed the eluates with a His6-tagged version of XtopBP1 that had been purified from baculovirus-infected insect cells (FIG. 1B). Finally, Applicants added ^32P-ATP and PHAS-I, a commonly used model substrate for ATR (Abraham, 2001).
# Xatrip-FLAG and XatripΔN222-FLAG (20 ng/μl each) were incubated in interphase extracts containing anti-FLAG M2 antibody beads (Sigma) for 60 min at room temperature. The beads were isolated and washed twice with buffer A (10 mM HEPES-KOH (pH 7.5), 150 mM NaCl, 0.1% CHAPS, and 2.5 mM EGTA) and twice with HEPES-buffered saline (HBS; 10 mM HEPES-KOH (pH 7.5) and 150 mM NaCl). Xatr-Xatrip complexes were eluted in one-tenth the volume of the egg extract in HBS containing 0.1 mg/ml 3×-FLAG peptide (Sigma) for 60 min at 4° C. Eluates (2 μl) were used for kinase assays as described below.
# (§1) Samples were incubated in 20 μl kinase buffer (50 mM Tris-HCl (pH 7.5), 10 mM MgCl2, 1 mM dithiothreitol, 100 μM nonradioactive ATP, and 100 μCi/ml [γ-^32P]ATP) containing 12.5 μg/ml PHAS-I or 50 μg/ml GST-Xmcm2 (62-122) for 30 min at room temperature. GST-XtopBP1 (972-1279) was added at a final concentration of 100 μg/ml unless indicated otherwise. In some cases, GST-Xmcm2 (62-122), GST-Xchk1 (306-352), or full-length Xchk1-Myc-His6 were used as substrates with only […] nonradioactive ATP. Reactions were terminated by boiling in gel sample buffer.
# [2] = system: chromosomal DNA replication; experiment: Chromosomal DNA replication in XtopBP1-depleted egg extracts; type: biochemical, Xenopus; conditions: XtopBP1-depleted extracts with protein added back
# Protocol: In conjunction with these experiments, Applicants also examined chromosomal DNA replication in extracts containing either wild-type or W1138R His6-XtopBP1. […] Therefore, the defect in phosphorylation of Xchk1 in the extracts containing this mutant is not due to a failure in the assembly of DNA replication forks.
# (§2) Extracts from Xenopus eggs were prepared as described (Kumagai and Dunphy, 2000). A DNA replication checkpoint response was induced by addition of 50 μg/ml aphidicolin into extracts containing demembranated sperm nuclei (3000 per μl) (Kumagai and Dunphy, 2000). To monitor DNA replication, extracts containing 1000 sperm nuclei/μl were incubated with [α-^32P]dATP (Yoo et al., 2004).
# [3] = system: Xchk1; experiment: Checkpoint-dependent phosphorylation of Xchk1 in XtopBP1-depleted egg extracts with aphidicolin and sperm nuclei; type: biochemical, Xenopus; conditions: added back to XtopBP1-depleted extract, aphidicolin
# Excerpt: Applicants proceeded to remove endogenous XtopBP1 from egg extracts by immunodepletion with anti-XtopBP1 antibodies (FIG. 7C). In parallel, Applicants used control antibodies to prepare mock-depleted extract. Next, Applicants added back wild-type His6-XtopBP1 or the His6-XtopBP1-W1138R mutant to aliquots of the XtopBP1-depleted extract. Finally, Applicants added aphidicolin and demembranated Xenopus sperm nuclei to the various extracts in order to create stalled replication forks and then examined phosphorylation of Xchk1 (FIG. 7D).
# as §2
# Xatr and Xatrip were immunodepleted as described (Kumagai et al., 2004). For immunodepletion of XtopBP1, we incubated 100 μl egg extract twice for 60 min with 10 μl Affiprep protein A beads (BioRad) containing 35 μg anti-XtopBP1 antibodies.
# [4] = system: Xatr-Xatrip; experiment: Glutathione bead pull-down of Xatr and Xatrip from egg extracts; type: binding, Xenopus
# Protocol: (§3) Specifically, Applicants incubated glutathione beads containing GST-XtopBP1 (972-1279) in egg extracts, reisolated the beads, and performed immunoblotting for both Xatr and Xatrip. […] In addition, in other experiments, there was no binding of Xatr or Xatrip to beads containing GST fusions of the 1-348, 333-646, or 623-984 segments from XtopBP1 (data not shown).
# (§4) Applicants also tested to see if the association of XtopBP1 with Xatr depends upon Xatrip. For this experiment, Applicants removed endogenous Xatrip from egg extracts by immunodepletion with anti-Xatrip antibodies. As described previously, this procedure leaves behind approximately 30% of the endogenous Xatr, the fraction that is not in a complex with Xatrip (Kumagai et al., 2004). Next, Applicants added GST-XtopBP1 (972-1279) to the Xatrip-depleted extracts and to mock-depleted extracts that had been prepared in parallel.
# [5] = system: Xchk1; experiment: Ectopic phosphorylation of 35S-Xchk1 in Xenopus egg extracts without checkpoint-inducing DNA; type: biochemical; conditions: 35S-Xchk1, tautomycin, no checkpoint-inducing DNA template
# Protocol: Because the GST-XtopBP1 (972-1279) fragment could activate Xatr in vitro without the inclusion of DNA, Applicants reasoned that ectopic addition of this fragment to Xenopus egg extracts might also be able to trigger the Xatr-dependent phosphorylation of Xchk1 even in the absence of a checkpoint-inducing DNA template.
# as §2
# [6] = molecular target: Xatr-Xatrip (Xenopus laevis, UniProt Q9DE14); experiment: Glutathione bead pull-down of Xatr and Xatrip from egg extracts; type: binding; parameters: incubated glutathione beads containing GST-XtopBP1 (972-1279) in egg extracts, reisolated the beads, and performed immunoblotting for both Xatr and Xatrip; Applicants removed endogenous Xatrip from egg extracts by immunodepletion with anti-Xatrip antibodies; from tissue; host or cells: Xenopus egg extract; conditions: Xatrip-depleted extracts
# Protocol: as §3, §4
# [7] = system: Xatm; experiment: Kinase assay of immunoprecipitated Xatm toward PHAS-I; type: biochemical, Xenopus; conditions: Xatm immunoprecipitated from egg extracts
# Protocol: Applicants have also shown that TopBP1 is a specific activator of ATR and not a general activator of the PIKK family. Specifically, Applicants immunoprecipitated both Xatr and Xatm in parallel from Xenopus egg extracts and then incubated the immunoprecipitates with GST-XtopBP1 (972-1279) (FIG. 3F).
# as §1
# [8] = system: human ATR; experiment: Kinase assay of recombinant human FLAG-ATR against S92 of GST-Xmcm2 (62-122); type: biochemical
# Protocol: (§5) Specifically, Applicants isolated wild-type and kinase-deficient versions of FLAG-tagged human ATR from nuclear extracts of U2OS cells that conditionally express these proteins (FIG. 5C). The recombinant ATR proteins were purified with anti-FLAG magnetic beads under conditions that preserve the binding of endogenous ATRIP (Ünsal-Kacmaz and Sancar, 2004). Next, Applicants incubated both the wild-type and kinase-deficient FLAG-ATR preparations in the absence or presence of GST-XtopBP1 (972-1279), and measured kinase activity against S92 of the GST-Xmcm2 (62-122) peptide.
# as §1
# (§6) U2OS cells conditionally expressing wild-type (GW33) or kinase-deficient (GK41) human FLAG-ATR were cultured as described (Nghiem et al., 2001). Cells were induced with 1 μg/ml doxycycline for 48 hr. Nuclear extracts were prepared as described (Dignam et al., 1983) except that nuclei were lysed by brief sonication and the concentration of NaCl in the nuclear isolation buffer was reduced to 350 mM in order to preserve the binding of endogenous ATRIP to recombinant ATR. FLAG-ATR proteins were isolated by an overnight incubation with anti-FLAG antibodies bound to protein G-magnetic beads (Dynal) and eluted with 3×-FLAG peptide.
# [9] = molecular target: T1, human ATR (Homo sapiens, UniProt Q13535); experiment: as above; type: biochemical; conditions: wild-type human FLAG-ATR from U2OS nuclear extracts
# T1 construct: expressed in transfected cells; host or cells: U2OS GW33 cells (doxycycline-inducible), nuclear extract, anti-FLAG purification
# Protocol: as §5, §1, §6
# Xatr-Xatrip, sequence (Q9DE14 whole entry, the tested form may be a part): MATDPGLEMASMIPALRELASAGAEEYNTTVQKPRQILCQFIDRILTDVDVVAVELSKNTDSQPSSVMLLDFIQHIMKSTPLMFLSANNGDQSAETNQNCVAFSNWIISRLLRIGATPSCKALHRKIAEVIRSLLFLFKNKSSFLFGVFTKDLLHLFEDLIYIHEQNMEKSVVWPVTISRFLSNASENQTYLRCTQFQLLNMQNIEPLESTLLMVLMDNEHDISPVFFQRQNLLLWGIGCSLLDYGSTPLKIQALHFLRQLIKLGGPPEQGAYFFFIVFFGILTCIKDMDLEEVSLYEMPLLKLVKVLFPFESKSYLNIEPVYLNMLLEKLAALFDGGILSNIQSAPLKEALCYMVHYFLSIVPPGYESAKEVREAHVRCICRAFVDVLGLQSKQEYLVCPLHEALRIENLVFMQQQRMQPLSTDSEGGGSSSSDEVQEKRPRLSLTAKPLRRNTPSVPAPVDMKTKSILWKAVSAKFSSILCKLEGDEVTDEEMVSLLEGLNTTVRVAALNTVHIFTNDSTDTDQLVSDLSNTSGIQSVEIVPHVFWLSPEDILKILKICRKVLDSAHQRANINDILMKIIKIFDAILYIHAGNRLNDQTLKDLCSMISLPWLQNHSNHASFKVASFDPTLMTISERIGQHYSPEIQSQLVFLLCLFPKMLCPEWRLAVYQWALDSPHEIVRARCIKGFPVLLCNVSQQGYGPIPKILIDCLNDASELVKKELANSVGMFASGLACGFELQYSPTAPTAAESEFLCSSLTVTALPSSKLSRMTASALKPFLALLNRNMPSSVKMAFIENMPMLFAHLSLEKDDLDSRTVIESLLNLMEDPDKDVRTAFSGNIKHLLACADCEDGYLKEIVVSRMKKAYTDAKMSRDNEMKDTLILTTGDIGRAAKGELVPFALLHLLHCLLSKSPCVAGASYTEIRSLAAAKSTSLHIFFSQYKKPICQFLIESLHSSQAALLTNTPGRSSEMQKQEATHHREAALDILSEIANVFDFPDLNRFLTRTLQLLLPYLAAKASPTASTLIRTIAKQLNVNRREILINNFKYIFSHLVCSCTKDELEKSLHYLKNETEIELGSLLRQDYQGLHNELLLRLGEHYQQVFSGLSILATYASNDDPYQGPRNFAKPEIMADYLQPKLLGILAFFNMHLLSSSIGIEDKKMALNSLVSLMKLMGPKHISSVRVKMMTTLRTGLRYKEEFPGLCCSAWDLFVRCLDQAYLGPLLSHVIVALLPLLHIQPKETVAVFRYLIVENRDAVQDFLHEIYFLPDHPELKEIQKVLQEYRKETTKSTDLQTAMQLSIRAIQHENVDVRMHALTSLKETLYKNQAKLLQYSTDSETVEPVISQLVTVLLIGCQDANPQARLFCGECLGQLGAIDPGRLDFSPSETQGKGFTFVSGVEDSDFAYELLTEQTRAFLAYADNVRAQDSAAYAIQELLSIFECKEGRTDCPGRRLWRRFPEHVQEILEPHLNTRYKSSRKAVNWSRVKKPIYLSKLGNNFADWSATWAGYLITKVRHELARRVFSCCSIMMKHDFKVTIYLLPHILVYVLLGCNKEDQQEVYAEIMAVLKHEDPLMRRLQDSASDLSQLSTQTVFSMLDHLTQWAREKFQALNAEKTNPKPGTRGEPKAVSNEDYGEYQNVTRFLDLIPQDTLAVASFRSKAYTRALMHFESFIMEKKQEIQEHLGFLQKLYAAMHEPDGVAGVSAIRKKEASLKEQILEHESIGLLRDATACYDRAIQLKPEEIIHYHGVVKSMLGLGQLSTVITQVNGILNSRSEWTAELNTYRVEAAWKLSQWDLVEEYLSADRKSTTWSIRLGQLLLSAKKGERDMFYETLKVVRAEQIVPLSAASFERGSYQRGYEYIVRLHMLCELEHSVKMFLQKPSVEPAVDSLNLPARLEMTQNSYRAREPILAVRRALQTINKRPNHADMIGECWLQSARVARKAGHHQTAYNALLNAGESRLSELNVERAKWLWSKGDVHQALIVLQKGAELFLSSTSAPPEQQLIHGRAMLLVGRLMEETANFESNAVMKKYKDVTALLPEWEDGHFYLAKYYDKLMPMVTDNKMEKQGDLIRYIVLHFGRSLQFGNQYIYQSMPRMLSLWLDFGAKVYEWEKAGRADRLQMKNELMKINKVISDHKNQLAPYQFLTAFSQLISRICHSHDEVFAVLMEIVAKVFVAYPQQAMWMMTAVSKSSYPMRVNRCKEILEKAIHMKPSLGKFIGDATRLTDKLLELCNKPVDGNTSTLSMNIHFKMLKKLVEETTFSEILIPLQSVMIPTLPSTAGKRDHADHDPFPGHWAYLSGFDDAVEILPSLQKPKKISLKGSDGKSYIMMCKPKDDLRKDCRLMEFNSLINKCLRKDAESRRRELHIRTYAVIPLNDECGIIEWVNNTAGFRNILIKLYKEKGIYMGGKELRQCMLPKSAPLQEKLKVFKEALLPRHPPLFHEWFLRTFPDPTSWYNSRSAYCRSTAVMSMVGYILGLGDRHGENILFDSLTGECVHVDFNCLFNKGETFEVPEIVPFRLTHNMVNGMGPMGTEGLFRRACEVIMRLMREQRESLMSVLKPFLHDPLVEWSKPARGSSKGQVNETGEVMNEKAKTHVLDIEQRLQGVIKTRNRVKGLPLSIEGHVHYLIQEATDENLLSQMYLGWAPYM
# Xatr-Xatrip (Xenopus laevis, UniProt Q9DE14), sequence (Q9DE14 whole entry): as the sequence (Q9DE14 whole entry, the tested form may be a part) above
Molecule,activation of Xatr kinase activity toward PHAS-I [1],chromosomal DNA replication [2],rescue of phosphorylation of Xchk1 [3],binding of Xatr to the XtopBP1 fragment ([4]; Xatrip-depleted extracts plus recombinant XatripΔN222-FLAG),"binding of Xatr and Xatrip to glutathione beads ([4]; egg extracts, immunoblotting)",binding of Xatr to the XtopBP1 fragment ([4]; mock-depleted extracts),"activation of immunoprecipitated Xatr ([1]; Xatr immunoprecipitated from egg extracts, PHAS-I)","Xatr-dependent phosphorylation of GST-Xmcm2 (62-122) peptide ([1]; substrate GST-Xmcm2 (62-122), S92)",phosphorylation of GST-Xchk1 (306-352) peptide and full-length Xchk1-Myc-His6 on S344 ([1]; substrates GST-Xchk1 (306-352) and Xchk1-Myc-His6),phosphorylation of Xchk1 in egg extracts [5],binding of Xatr to the XtopBP1 fragment [6],activation of Xatm [7],kinase activity in mock preparation of magnetic beads ([8]; beads lacking anti-FLAG antibodies),activity of kinase-deficient FLAG-ATR ([8]; kinase-deficient human FLAG-ATR),kinase activity of wild-type FLAG-ATR [9]
His6-XtopBP1-W1138R: version of full-length His6-XtopBP1 with the W1138R mutation,unable to activate Xatr,not inhibited,could not restore the phosphorylation of Xchk1,,,,,,,,,,,,
"GST-XtopBP1 (972-1279): GST fusion protein containing conserved region between BRCT domains VI and VII (residues 972-1279) of XtopBP1 (protein, left off: a dimerising Fc or GST, GST fusion protein containing conserved region between BRCT domains VI and VII (residues 972-1279) of XtopBP1) EQQKRVPEALYPHTYNPKMSLDISAVQDGSYTASKFSADTSLQQDENSELQLQQNNKFGETSDDQVKKAAGDGNPQNPSKDVKGALTQTLEMRENFQRQLQEFMSATSVVKPRGSVGRAGFDNSPCTPEGARSTRNGRSRVLEALRQSRQAMTDLNTEPSQNEQIIWDDPTAREERAKLVSNLQWPDSPSQYSEQLQHNMNDAGGNYTPAKESLTDSEIAELEACEFEPKSAMRTPVIENNLQSPTKPDHLTPTPQAPSIAFPLANPPVAPQPREKPVQPFSKEETLKERRFQLSSLDPQERIDYSQL",induced activation of Xatr as effectively as full-length XtopBP1,,,restore the binding,could clearly detect binding,good binding,strong activation,induced a strong Xatr-dependent phosphorylation,readily induced phosphorylation,very robust phosphorylation,no binding,no activation of Xatm,did not induce any kinase activity,neither the intact nor W1138R mutant form of GST-XtopBP1 (972-1279) had any effect,large increase
